Measurements from the nanobody polyreactivity screen of Harvey et al. (2022).

Assay: yeast display, Sf9 membrane polyspecificity reagent, FACS + sequencing; frameworks hold sequencing errors
Outline: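 Sorting gates, low and high (top ~1%), were placed on anti-HA fluorescence to track expression and on streptavidin fluorescence to track reagent binding. A clone's polyreactivity label is taken from the gate it came out of. The reagent was 10% biotinylated, detergent-solubilized Sf9 membrane, applied for 1 hour at 4 °C to galactose-induced yeast display cells.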

| Sequence | polyreactivity (PSR sort gate) |
| --- | --- |
| QVQLVESGGGLVQAGGSLRLSCAASGRTFSKYTMGWYRQAPGKERELVAVISRSGTRTYYADSVKGRFTISRDNAKNTVYLQMNSLKPEDTAVYYCAAKDERRSFGMGYWGQGPQVTVSS | high polyreactivity |
| QVQLVESGGGLVQAGGSLRLSCAASGFIFETNAMGWYRQAPGNERELVAAISSRGGSTYYADSVKGRFTISRDNAKNTVYLQMNSLKPEDTAVYYCAAKLVVSYGQEYDYWGQGTQVTVSS | low polyreactivity |
| QVQLVESRGGLVQAGGSLRLSCAASGRIYNYYEMGWYRQAHGKESELVAAITWRGGTTYYADSVKGRFTISRDNAKNTVYLQMNSLKPEDTAVYYCATTPRSYRFPPPVGYGYWGQGTQVTVSS | high polyreactivity |
| QVQLVESGGGLVQAGGSLRLSCAASGSNFNPYDLGWYRQAPGKERELVAAIDWSGGSTYYADSVKGRFTISRDNAKNTVYLQMNSLKPEDTAVYYCNAESYQDTLFGADNDYDYWGQGTLVTVSS | low polyreactivity |
| QVHLVESGGGLVQAGGSLRLSCAASGGIFLDNAMGWYRQAPGKERELVASIRTRTYYADSVKGRFTISRDNAKNTVYLQMNSLKPEDTAVYYCAAAHRRWDGDYNYWGQGTQVTVSS | high polyreactivity |
| QVQLQESGGGLVQAGGSLRLSCAASGSISSRDAMGWYRQAPGKEREFVATIASGTTTYYADSVKGSFTISRDNAENTVYLQTNSLKPEDTAVYYCAAPTIQIYPFYYWGQGTQVTVSC | high polyreactivity |
| QVQLVESGGGLVQAGGSLRISCAASGSIFHFNAMGWYRQAPGKERELVARISIGGGSTYYADSVKGRFTISRDNAKNTVYFQMKSLKPEDTAVYYCGVDGSPRYKYDYWGQGTQVNVSS | high polyreactivity |
| QVQLVESGGGLVQAGGSLRLSCAASGSTFYYNAMGWYRQAPGKERELVARISRAGASTYYAVAVKGRFTISRDNAKNTVYLPMNSLTPEDTAGYYCAARKKKYGYDNWGQATQVTVSS | high polyreactivity |
| QVQLVESGGGLVQAGGSLRLSCAASGFTLYSYAMGWYRQAPGKERELVAAISWSGTRTYYADTVKGRFTISRDNAKNTVYLQMNSLKPEDTAVYYCAARGYRYGYGYWGQCTQVTVSS | high polyreactivity |
| QVQLVESGGGLVQAGGSLRLSCAASGNIIQYYAMGWYRQAPGKERELVADIDSSGASKYYADSVKGRFTISRDNAKNTVYLQMNSLKPEVTAVYYCAAEFHWWYAGYDYGYWGQGTQVTVSS | low polyreactivity |
| QVQLVESGGGLVQAGGSLRLSCAASGIILYGYAMGWYRQAPGKERELVAAISRRGGITYYADSVKGRFTISRDNAKNTVYLQMNSLKPEDTAVYYCAADWYGYRQFHGYYWGQGTQVTVSS | high polyreactivity |
| QVQLVESGGGLVQAGGSLRLSCAASGLTFAYNAMGWYRQAPGKARQLVASINWSDSSTYYADSVKGRFTISRDNAKNTVYLQMHSLKPEDTEVYYCAADAYYVGQGYDYGGQGTQVTVSS | low polyreactivity |
| QVQLVESGGGLVQAGGSLRLSCAASGRTFYTNAMGWYRQAPGKERELVAAISRGGGRTYYADSVKGRFTISRDNAKNTVYLQMNSLKPEDTAVYYCAASPYQGQGREYYYWGQGTQVTVSS | high polyreactivity |
| QVQLVESGGGLVQAGGSLRLSCAASGSTFGVYAMGWYRQAPGKERELVASITSGTSTYADSVKGRFTISRDNAKNTVYLQMNSLKPEDTAVYYCAAEYLYFNLGYDYWGQGTQVTVSS | low polyreactivity |
| QVQLQESGGGLVQAGGSLRLSCAASSNHSTLDVMGWYRQAPGKEREIVASIGSGGITNYADSVKGRFTISRDNAKNTVYLQMNSLKPEDTAVYYFAVLNQAYTDLIYWGQGTQVTVSS | high polyreactivity |
| QVQLVESGGGLVQAGGSLRLSCAASGRIFAGYAMGWYRQAPGKERELVAAITGTGDRTYYADSVKGRFTISRDNAKNTVYLQMNSLKPEDTAVYYCAAAYGAYYPWGYDYWGQGTQVTVSS | low polyreactivity |
| QVQLVESGGGLVQAGGSLRLSCAASGSTFYSYAMGWYRQAPGKERELVAAISSSAGSTYYADSVKGRFTISRDNAKNTVYLQMNSLKPEDTAVYYCAAPKRYGVRYGYWGQGTQVTVSS | high polyreactivity |
| QVKLVESGGGLVQAGGSLRLSFAASGFTCNANAMGWYRQAPGQERELVAAISLSGGRTYYADSVKGRFTISRDNAKNTVYLQMNSLKAEDTAVYYCAASPDGSFRRFSRVVSGDYWGQGTQVTVSS | high polyreactivity |
| QVQLVESGGGLVQAGGSLRLSCAASGSIFVWNAMGWYRQAPGKERELVARIRYSSNTYYADSVKGRFTISRDNAKNTVYLQMNSLKPEDTAVYYCAAGSTRYAGWTYNYWGQGTQVTVSS | high polyreactivity |
| QVQLVESGGGLVQAGGSVRLSCAASGRIFRHNTRGWYRQAPGKERELVAAITFSDGNTYYADSVKGRFTISRDNAKNTVYLQMNSLKPEDTAVYYCNAGYSYGVSYAEGGYWGQGTQVTVSS | low polyreactivity |
| QVQLVESRGGLVQAGGSLRLSCAASGSTFFHYAMGWYRQAPGKDRELVAAIDSNGGSTYYADSVKGRFTISRDNAKNTVYLPMNSLKPEDTAVYYCAADDLAEFEYDYWGQGTQVTVSS | low polyreactivity |
| QVHLVESGGGLVQAGGSLRLSCAASGFIYWAYAMGWYRQAPGKERELVAGITRSGGSTYYADSVKGRFTISRDNAKNTVYLQMNSLKPEDTAVYYCAADFRYNGGYWGQGTQVTVSS | high polyreactivity |

| Sequence | polyreactivity (PSR sort gate) |
| --- | --- |
| QVQLVESGGGLVQAGGSLRLSCAASGFSFSDYPMGWYRQAPGKERELVAAISGSGGSTYYADSVKGRFTISRDTAKNSVYLQMNSLKPEDTSVYYCNKGYARRYASGYDYWGQGTQVTVSS | high polyreactivity |
| QVQLVESGGGLVQAGGSLRLSCAASGRTFNYYVMGWFRQAPGKERELVATINWSGGSTYYADSVKGRFTISRDNAKNTVYLQMNSLKPEDTAVYYCAARWFYHRNHNRNYWGQGTQVTVSS | high polyreactivity |
| QVQLVESGGGLVQAGGSLRLSCAASGFIFGYNAMGWYRQAPGKERELVAAITWIGGTTYYADSVKGRFTISRDNAKNTVYLQMNSLKPEDTAVYYCARQRSYGRSSYSYGYDYWGQGTQVTVSS | high polyreactivity |
| QVQLVESGGGLVQAGGSLRLRCAASGRTFSGYAMGWYRQSPGKERELVAAITASGSSTYYADSVKGRFTSSRDNAKNTVDLQMNSLKPEDTAVYYCAADYTGDWADGPHSLREYDYWGQGTQVTVSS | low polyreactivity |
| QVQLVESGGGLVQAGGSLRLSCAASGFTFPLYAMGWYRQAPGKERELVAAIRSSGGSTYYADSVKGRFTISRDNAKNTVYLQMNSLKPEDTAVYYCAKVRYTRRLDTYYYWGQGTQVTVSS | high polyreactivity |
| QVQLVESGGGLVQAGGSLRLSCAASGRNISYNAMGGYRQAPGKERELVAAISWGGGSTYYADSVMGRFTISRDNAKNTVFLHMNSLKQDDTAVYYCAKGWYRIKRNDYWGQGTQVTVSS | low polyreactivity |
| QVQLVESGGGLVQAGGSLRLSCAASGRIFDGYAMGWYRQAPGKERELVATITGDGGSTYYADSVKGRFTISRDNAKNTVYLQMNSLKPEDTAVYYCAARLTRRLSWYLYNNDYWGQGTQVTVSS | high polyreactivity |
| QVQLVDSCGGLVQAGGSLSLSCAASGRTFTRYAMGWYRQAPGKERELVASITNGGGTYYADSVKGRFTISRDNAKNTVYLQMNSLKPEDTAVYYCAKAERVTSHIYYSWGQGTQVTVSS | low polyreactivity |
| QVQLVESGGGLVQAGGSLRLSCAASGRIFKYYARGGYRQAPGKERELVAAISGSGGSTFYADSVKGRFTISRDNAKNTVYLQMNSLKPEDTAVYYCNADEVVWGYNYWGQGTQVTVSS | low polyreactivity |
| QVQLVESGGGLVQAGGSLRLSCAASGRTFGRYAMGWYRQAPGKERELVATITRGDSTYYADSVKGRFTISRDNAKNKVYLQMNSLKPEDTAVYYCAADWHRWYLDYDYWGQGTQVTVSS | low polyreactivity |
| QVQLVESGGGLVQAGGSLRLSCAASGRTFWYYDKGWYRQAPGKERELVAAITNGDRTYYADSVKGRFTISRDNAKNTVYLQMNSLKPEDTAVYYCAKETWGTRHDYWGQGTQVTVSS | high polyreactivity |
| QVQLVESGGGLVQAGGSLRLSCDASGSTFPFYAMARYRQAPRKERELVAAIRNTGNTYYADSVKGSFTISRDNAKNTAYLQMNSLNPEDPAVYYCAKALRSASDYWGQGTQVTVSS | low polyreactivity |
| QVQLVESGGGLVQAGGSLRLSCAASGRTFIWYAMGWYRQAPGKERELVAAISYSGASTYYADSVKGRFTNSRDNAKNTVYLQMNSLKPEDTAVYYCYPLGTYSYDYWGQGTQVTVSS | high polyreactivity |
| QVQLVESGGRLVQAGGSLRLSCAASGSTFYFYAMGWYRQEPGKERELVAAISFTDTSTYYADSVKARFTISRDNAKNNVYLQMNSLKPEDTAVYYCAADSDYWGQGTQVTVSS | high polyreactivity |
| QVQLVESGGGLVQAGGSLRLSCAASGRIFFRYDLGWYRQAPGKERELVAAISGGDRTSYADSVKGRFTISRDNAKITVYLQMNSLKPEDTAVYYCAGKRRSGEYYYWGQGTQVTVSS | low polyreactivity |
| QVQLVESGGGLVHAGGTLSLSCADSGFTYVLYGMGWYRQEPGKESELVASITWNGVGTYYADSVKGRFTIARDNAKNTVYLHMNSLKPEDTSVYFCHADDPDLASYLGVDYWGQGSQVTVSS | high polyreactivity |
| QVQLVESGGGLVQAGGSLRLSCAASGRIFPGYAMGWYRQAPGKERELVAAISASGGSTYYADSVKGRFTISRDNAKNTVYLQMNSLKPEDTAVYDCNAVYRLIRFDYWGQGTQVTVSS | high polyreactivity |
| QVQLVESGGGLVQAGGSLRLSCAASGSIFLWNAMGWYRQAPGKERELVAAISSSGGSTYYADSVKGRFTISRDNAKNTVYLQLNSLKPEDTAVYYCAAVSRSYYNSYNYWGQGTQVTVSS | high polyreactivity |
| QVQLVESGGGLVQAGGSLRLSCAASGFTFPWYTMGWYRQAPGKERELVAAINSRGGSTYYADSVKGRFTISRDNAKNTVYLQMNSLKPEDTAVYYCATRSFGRMDYWGQGTQVTVSS | high polyreactivity |
| QVQLVESGGGLVQAGGSLRLSCAASGLIFVINAMGWYRQAPGKERELVATISSRVSTNYADSVKGRFTISRDNAKNTVYLQMNSLKPEDTAVYYCNKGQTVSRGYRLYERFDYWGQGTQVTVSS | low polyreactivity |
| QVQLVESGGGLVQAGGSLRLSCAASGSTFYVNDMGWYRQAPGKERELVAAIDWTGGTTYYADSVKGRFTISRDNAKNTVYLQMNSLKPEDTAVYYCAVDDSTVDYDYWGQGTQVTVSS | low polyreactivity |
